From patent US20130072665A1

B1: 16F12, anti-PCSK9 huIgG4 (antibody, V domains shown)
VH: QVHLVESGGGVVQPGRSLRLSCAASGFTFNSFGMHWVRQAPGKGLEWVALIWSDGSDEYYADSVKGRFTISRDNSKNTLYLQMNSLRAEDTAVYYCARAIAALYYYYGMDVWGQGTTVTVSS
VL: QSVLTQPPSVSAAPGQKVTISCSGSSSNIGNNFVSWYQQLPGTAPKLLIYDYNKRPSGIPDRFSGSKSGTSATLGITGLQTGDEADYYCGTWDSSLSAYVFGTGTRVTVLQ
B2: 21B12, anti-PCSK9 huIgG4 (antibody, V domains shown)
VH: QVQLVQSGAEVKKPGASVKVSCKASGYTLTSYGISWVRQAPGQGLEWMGWVSFYNGNTNYAQKLQGRGTMTTDPSTSTAYMELRSLRSDDTAVYYCARGYGMDVWGQGTTVTVSS
VL: QSALTQPASVSGSPGQSITISCTGTSSDVGGYNSVSWYQQHPGKAPKLMIYEVSNRPSGVSNRFSGSKSGNTASLTISGLQAEDEADYYCNSYTSTSMVFGGGTKLTVLQ
B3: 23B5 (antibody, V domains shown)
VH: EVQLLESGGGLVQPGGSLRLSCAASGFTFSSYAMNWVRQAPGKGLEWVSTISGSGDNTYYADSVKGRFTISRDNSKNTLYLQMNSLRAEDTAVYYCAKKFVLMVYAMLDYWGQGTLVTVSS
VL: DILMTQSPSSLSASVGDRVTITCRASQSISSYLNWYQQKPGKAPKVLIYAASSLQSGVPSRFSGSGSGTDFTLTINSLQPEDFATYYCQQSYSSPITFGQGTRLEIK

Columns and labels:
[1] = target: cynomolgus monkey PCSK9 (cynomolgus monkey); test: BIAcore, antibody immobilised, pH 7.4
[2] = target: cynomolgus monkey PCSK9 (cynomolgus monkey); test: KinExA solution equilibrium
[3] = target: cynomolgus monkey PCSK9 (cynomolgus monkey); test: BIAcore solution equilibrium, % free cPCSK9 against [21B12]; third of four curves; cPCSK9 concentration not given
[4] = target: cynomolgus monkey PCSK9 (cynomolgus monkey); test: BIAcore solution equilibrium, % free cPCSK9 against [21B12]; second of four curves; cPCSK9 concentration not given
[5] = target: cynomolgus monkey PCSK9 (cynomolgus monkey); test: BIAcore solution equilibrium, % free cPCSK9 against [21B12]; rightmost of four curves; cPCSK9 concentration not given
[6] = target: cynomolgus monkey PCSK9 (cynomolgus monkey); test: BIAcore solution equilibrium, % free cPCSK9 against [21B12]; leftmost of four curves; cPCSK9 concentration not given
[7] = target: cynomolgus monkey PCSK9 (cynomolgus monkey); test: BIAcore solution equilibrium
[8] = target: cynomolgus monkey PCSK9 (cynomolgus monkey); test: BIAcore solution equilibrium, column To Cyno PCSK9

Row | Binder | Kd [1] [nM] | Kd [2] [nM] | IC50 (read off the curve) [3] [pM] | IC50 (read off the curve) [4] [pM] | IC50 (read off the curve) [5] [pM] | IC50 (read off the curve) [6] [pM] | Kd [7] [nM] | Kd [8] [nM]
1 | B1 | 0.87 | 0.016 | – | – | – | – | – | –
2 | B2 | 0.36 | – | 90 | 30 | 200 | 20 | 0.011 | –
3 | B3 | – | – | – | – | – | – | – | 0.12
